A short description of this data set: soluble on expression in E. coli; label from the status in PepcDB or PDB records.
Turning to “MTAPRYPRDMIGYGATPPNANWPGNARIAVQIVLNYEEGGENNILHGDAASEAFLSEIVGAAPWPGQRHWNMETIYEYGARAGFWRLHRLMRDLPVTVYGVATALARSPDQVAAMKSAGWEIASHGLKWVEHKDMPEEEERAQIAEAIRLHTEVTGSRPRGWYTGRCSMNTVRLASEAGIDYIADTYDDDLPYWKRIDGRDQLIVPYTLDCNDMRFATPQGFNSGDQFFAYLKDSFDALYAEGGEGAPKMLSIGLHCRLIGRPGRVMALKRFLDYARGHEDVWFATRLQIAEHWVREHPPVARTRPSEMPKADFVAAYGGIFEHSPWIAERAHGLELGPAHDTAGGLHNALCRMFRSASAEERLGVLTAHPDLAGKLAQAKRLTAESTSEQASAGLDALTDEERTTFTRLNTEYVARFGFPFIIAVRDHDKASILAAFQRRIGNDRETEFAEACRQVERIAEFRLRDVLPSLEHHHHHH”, the “soluble on expression in E. coli” value is on record as “soluble”.

Take “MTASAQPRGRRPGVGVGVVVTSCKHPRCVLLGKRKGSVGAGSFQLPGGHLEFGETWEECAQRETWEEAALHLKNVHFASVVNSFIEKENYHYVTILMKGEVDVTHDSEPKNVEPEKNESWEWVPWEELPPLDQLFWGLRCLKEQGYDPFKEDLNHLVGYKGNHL”: the “soluble on expression in E. coli” value is listed as “soluble”.

Take “MTASSPNRARTSLAAYASAGPVSLPAGSTRTVASGTSSRTRSAYASRVTASRSSAKAARSAVRRSRLRSSSPSASSCLGRWLRLAGYSRVPVPPASRTAATVCVTARSPGGWSACRRVRRRGPNACLRGASDRVHPGCGDLKGVGSKHRYVSHRNTRGDGYTTMSDLSDTAQEVHDDLSEHVDATVDDVEARLEKLVSEYKVPVDEARRSVENHYLDEAGLDRDDLAGGGGNDTVEVEDVDEAEQWVDITAKVVELWEPRSDSVGQVGLLGDPTGTIKFTKWAKSDLETLDEGQVYRLGNVVTDEYQGRYSVKLNKTTSIEAVDEEFEVGDNEDEVAGALVDVQSGSGLIKRCPEEDCTRVLQNGRCNEHGEGDGEFDLRIKGVLDDGTDVHEVIFDEEATEALTGIGLEEAKQMAKDALDTTVVADEMRATILGKYYRVTGPTFGRYVLANDTELLTTRPDTESVLIRARSILEHHHHHH”: the “soluble on expression in E. coli” value was “not soluble”.

On to “MTDICMLKTMDSRNTNEAKQEPKTMVWWDINSCPVPDGYDARMVAHSIESELKKAGYPGPLTITAIGYLNTPLMCM”, for which the “soluble on expression in E. coli” value was “not soluble”.

For the sequence “MTDIPHDHPRYESLLAREKVAAGVKMGITSIQGLIAQGRGESFDYLIGERSTESALYAERAAVAALLLAENPVISVNGNVAALAPDKVVTLADITGARIEVNLFHRTDTRVHLIIEQLKASGAAEVLGKNPDASLELSHDRRLVSSKGIYTADVVLVPLEDGDRCEKLVEMGKTVITIDLNPLSRTSKTATISIVDNLTRALGNMAKFAQEMKKERKEELVKLITTYDNKRTLSEAISEIQEHLKTMAAETGLEHHHHHH”, the “soluble on expression in E. coli” value is on record as “soluble”.

Regarding “MTDKDLLHQKYYHGLLPREDIQEMLNKPGQFLLRTSEPVKGEKRQFVLSVVGEKNTSANHFVVREADHKVYVDKIGFPTIIELVNHYVSTKESFSTKDGTVKVVLKHAVERQKWELYHEDVELTKKLGEGAFGEVWKGKLLKILDANHQPVLVAVKTAKLESMTKEQIKEIMREARLMRNLDHINVVKFFGVAAGTEPLYVIMELADGGALDSALGKLHFPMIKKYELIYQAANGLAYIHEKNLMHRDVAARNCLYGGGQVKIADFGLSREGADYTMDLKKKVPIRWLPPETIRSGLYTPKTDVFAFGVMAWEITEDGKEPYPGFKVIEVAMKVLQGYRMPFSPEVNKEFAEFILTKCWPEKYEDRLPMKDICKWMKSSVKAQGGDTGPGGMMSKFGKKIKRSNSRESKSKSSTMTAAHGHDQGAMTAIEK”, the “soluble on expression in E. coli” value was “not soluble”.

As to “MTDPARMVELWRGGLLESWHTGHAAVWSADGGLVEAWGDPGTVIFPRSSCKMMQALPLLESGAGAGLSSQRLALACASHQGAELHTGHVGRWLTDLGLCEADLRCGAHMPADTAERDRLIRAYEEPCQIHNNCSGKHAGFLMLSQHLKAGPEYVEIDHPVQQAVRTAFEEVTDEASPGYGIDGCSAPNFATTVAGLARAMAFFAGASTGGGVRERSAARLVEAMIAHPELVAGEGRACTELMRAMGGRAAIKTGAEAVFVAIVPEKRLGIALKIVDGSTRASEAAIAALLVRHGLLDPAHPAARKRLDAIQTNWRGRETGILRAAPGFPLEHHHHHH”, the “soluble on expression in E. coli” value is on record as “not soluble”.

Regarding “MTDQGLEGSNPVDLSKHPSGIVPTLQNIVSTVNLDCKLDLKAIALQARNAEYNPKRFAAVIMRIREPKTTALIFASGKMVCTGAKSEDFSKMAARKYARIVQKLGFPAKFKDFKIQNIVGSCDVKFPIRLEGLAYSHAAFSSYEPELFPGLIYRMKVPKIVLLIFVSGKIVITGAKMRDETYKAFENIYPVLSEFRKIQQ”, the “soluble on expression in E. coli” value is “soluble”.

Take “MTDTNTLLVTSLEEGIGKTAITLALATRAHDAGYDVGYMKPKGTRLRSAVGKTRDEDPMLARELLDLETDLHDMEPIVYSPTFIQEAIRGREDPDDLRERLQEGIETCSDGTDMLLVEGSSDLATGSIVDLTDIDIAELLDARVLLVTGYDTPSDTDEILSAAEAIGDRLDGVLFNGVTDATVDELADDVVPFLEGEGIPVHGILPRDRSLAGVTVADLARNLGADILTGDANTDVHVERFSVGAMSGSSALERFRRTRDAVVVTGGDRSEVQTAALEASGINALLLTGGFQPASAVIGQAAEKNVPVLSVQSDTRTTIDRVEEVLRTGQTRNEATVDRMRTLLDDGVDVESLLSVDLLEHHHHHH”: the “soluble on expression in E. coli” value is “soluble”.

In the case of “MTDYDSLDDNAFRLMVREWIAANYPQRIRNPPRRLGREETREWYLLLSRQGWLCPGWPREYGGMGLSAGKQLIMMEEMEEYGCARLPDSGVTMLGPLLIRYGDEAQRARFLPRILSGEDIWCQGYSEPNAGSDLASLRTEARLENGEWVINGQKTWTTMGSEANWIFLLVRTERSAKAQHGISFLLVPMDSLGIEVRPILNLELHGEFCEVFFNDVRVPYDSLVGEINQGWSMAKALLGFERIFLGSPKQSTFALQRLERLARHLGLWHDPLFARRFAALSMDLDSHKALYERFAERLRRGESLGPEVSMLKIFQSELFQRISELGLEIAGEDSALLQPFAEDPELHPAGIFIQSRPTTIYGGSNEIQRNILAKSVLGLPG”, the “soluble on expression in E. coli” value was “not soluble”.

With “MTDYFTAHDVLKKVEGLNSLSTLNKWANFIQKECDYQFHYDYIRFASHTRTKRTINHRKTRMFSLEEIQKFQKVIKLIPILGRNTSLRKLFDKKHHLDTMNHSELLTEIINQIEVKLANKEELFQALTKKYQQLERSYQTLEQRLAQLEESLSTQEQTSSGWFRRKR”, the “soluble on expression in E. coli” value was “not soluble”.

Consider “MTDYGDADKYVNDESIEMAWAIKAGERSEVHMNLIMRCDTRVLRLNKHQDAILAAFRSSFPDLNVEEVTTSLLKDGGAKETWREFCEQFKDIVDDYSMGTLMRIHASKAYSPENTVVVPRIIYLAIEMARNVEGVNEKNKEAYTAHRNSLASL”, for which the “soluble on expression in E. coli” value is “soluble”.

In the case of “MTEHTAPTAPVADVCLLLEGTWPYVRGGVSSWVNQLILGLPDLTFSVFFIGGQKDAYGKRHYPIPDNVLHIEEHFLETAWSSPNPQTRQGSSETEKALRDLHRFFHYPETPDVEEGDALLDLLAEGRIGREDFLHSKASWEAITAGYERYCTDPSFVNYFWTLRSMQAPVFMLAEAARRMPRARMLHSISTGYAGLLGCILQRRWGCRYLLSEHGIYTKERKIDLAQANWIAENPDEQLSTGLDAEVSYIRRLWIRFFERVGLLTYRAANPIVALYEGNRQRQVLDGAEPRRTRVIPNGIDLDAWTGALERRPPGIPPVVGLVGRVVPIKDVKTFIRAMRGVVSAMPEAEGWIVGPEEEDPDYASECRSLVASLGLQDKVKFLGFRRIGEVLPQLGLMVLTSISEAQPLVILEAWAAGAPVVSSDVGSCRELIEGADAEDRALGRAGEVVAIADPQATSRAILALLRNPQRWQAAQAVGLQRVERYYTEALMLGRYRGLYREATEIA”, the “soluble on expression in E. coli” value is listed as “not soluble”.

As to “MTEKTTVKTLKDVVVRFCGDSGDGMQLTGTIFSDLSAVFGNTISTFPDYPAEIRAPQGTLGGVSGFQVHIGTDLVRTPGDLADVLVAMNPAALKVNRTHVRRDSIIIIDSDSFMASDLEKAEIASEDFMTELGLTTQELFTVPISSMVKKSTAEFGLDVKAALRCKNMFALGLVCWLFDRPTQHAIDYLNRKFGKKEAILNANIKALADGFNYGHNTHATATTYRIEGRKQTPGVYMDISGNKATAYGLVAAAEHANLNL”, the “soluble on expression in E. coli” value is “soluble”.

The values are drawn from the DeepSol protein solubility set.
